{
  "source": "patent US9657081B2",
  "about": "“Inhibiting peptides derived from triggering receptor expressed on myeloid cells-1 (TREM-1) TREM-like transcript 1 (TLT-1) for treatment of cardiovascular diseases” (INSERM (Institut National de la Sante et de la Recherche …, priority 2013, dated 2017)",
  "key": {"[1]": {"target": "T1, TREM-1 (Sus scrofa, UniProt Q6TYI6)", "T1 construct": "endogenous in cells; host or cells: living mini-pigs (in vivo)", "T1 sequence (Q6TYI6 21-238)": "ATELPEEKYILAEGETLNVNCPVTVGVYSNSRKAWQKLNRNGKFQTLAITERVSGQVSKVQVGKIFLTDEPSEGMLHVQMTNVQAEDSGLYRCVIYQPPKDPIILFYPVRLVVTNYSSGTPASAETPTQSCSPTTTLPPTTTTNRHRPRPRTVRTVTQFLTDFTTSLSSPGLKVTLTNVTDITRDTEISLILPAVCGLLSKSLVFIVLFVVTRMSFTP", "assay": "Mini-pig model of sepsis (peritonitis): sepsis-induced hypotension and cardiac dysfunction", "assay_type": "in vivo, mini-pig (Sus scrofa domestica)", "experimental": "Adult male mini-pigs (Sus scrofa domestica, Vietnamese pot-belied mini-pigs, 30-40 kg) were purchased from Elevage Ferry (Vosges, France). Before surgery, animals were fasted overnight with free access to water. Preanesthesia was performed through intramuscular administration of ketamine (10 mg/kg) and midazolam (0.1 mg/kg). Anesthesia was induced and maintained with intravenous pentobarbital (initial bolus: 10 mg/kg, and continuous administration 6-8 mg/kg/h), intermittent sufentanyl (10 μg), and pancuronium (4 mg) if necessary. Animals were mechanically ventilated (tidal volume 8 ml/kg, PEEP 5 cm H2O, FiO2 0.21, respiratory rate 14-16 breaths/min adjusted to maintain normocapnia). Left jugular vein was exposed and a triple-lumen line was inserted. Right jugular vein was also catheterized and a Swan-Ganz catheter was positioned allowing the continuous recording of cardiac output, SvO2, and right atria and pulmonary arterial pressures. A right carotid arterial catheter was inserted for continuous measurement of arterial pressure. A catheter in the bladder allowed urine collection.\nAfter instrumentation, a midline laparotomy was performed to collect feces from the left colon: 1.5 g/kg were suspended in 200 mL of 0.9% NaCl and incubated at 38° C. for 2 hours. After surgery, a tube was left in place for the peritonitis induction and ascites drainage.\nAfter surgery, animals were allowed to recover for 2 hours before baseline measurements (defined as ‘H0’). Normal saline was continuously administered (10 mL/kg/h) throughout the study. Body temperature was kept constant (±1° C.) using heating pads or cooling.\nAfter baseline data collection (H0), peritonitis was induced by administration of autologous feces through the abdominal tube which was subsequently maintained clamped. After 2 hours (H2), animals were randomized to receive LR12 (LR12 group, n=6) or the vehicle (normal saline) alone (Control group, n=5). A bolus of 5 mg/kg (in 60 mL) was intravenously delivered over 30 minutes, then a 1 mg/kg/h (15 mL/h) infusion was started and lasted throughout the study period.\nAnimal care was then provided by an experienced intensive care physician with strict adhesion to the following guidelines throughout the study period:\ni) Hemodynamic targets: the main objective was to maintain mean arterial pressure (MAP) above 85 mmHg. To achieve this goal and in addition to the maintenance 0.9% NaCl administration (7 mL/kg/h), hydroxyethyl starch (up to 20 mL/kg for the entire study period) (HES 130/0.4, Voluven®, Fresenius) was allowed provided that central venous pressure (CVP) and pulmonary artery occlusion pressure (PAOP) was <18 mmHg. When hydroxyethyl starch maximal volume was reached, a continuous infusion of norepinephrine was started up to 10 μg/kg/min.\nHemodynamic parameters were continuously monitored including MAP, mean pulmonary artery pressure (MPAP), right atrial pressure (RAP), cardiac output (CO), cardiac index (CI), and SvO2. Systemic oxygen delivery (DO2) and systemic oxygen uptake (VO2) were calculated by the Swan-Ganz monitor. Cardiac Power Index (W/m^2) was calculated as MAP×CI/451 (24)."}, "[2]": {"system": "TREM-1", "assay": "Monkey model of endotoxin (LPS) infusion: blood pressure monitoring", "assay_type": "in vivo, cynomolgus monkey (Macaca fascicularis)", "experimental": "Male cynomolgus monkeys (Macaca fascicularis) (2.8 to 3.5 kg, 24 months old, Le Tamarinier, La Route Royale, Tamarin, Mauritius) were used. Animals were fasted the day before LPS challenge but with full access to water. CIToxLAB France Ethical Committee (CEC) reviewed and approved all study plans (Nr CEC: 02221).\nVital signs and weight were recorded the day before LPS challenge. The next morning, baseline clinical laboratory samples were collected, and a baseline set of vital signs was recorded. The drug was administered into the cephalic or saphenous vein via a Teflon catheter. Contralateral vein was used for LPS administration.\nMonkeys were randomized to receive LR12 or placebo (n=6 per group). An additional group of 4 was constituted to only receive vehicle (NaCl 0.9%) infusion and served as the control group.\nAt time point 0, a 15 mins intravenous infusion of LR12 or placebo solution was begun, at the rate of 12 mL/h (5 mg/kg, 10 mins, 2 mL), delivered by a calibrated syringe pump (Harvard Apparatus). A continuous infusion was then administered for further 8 hours at the rate of 2 mL/h (1 mg/kg/h, 8 hours, 16 mL). Just before treatment infusion, an intravenous bolus of LPS (10 μg/kg) was administered over the course of a 10 mins period into the contralateral catheter. Animals remained awake in an upright position in a restraint chairs and continued to fast from food for the whole study duration.\nPulse rate, and blood pressure were monitored every 15 mins for 1 hour, then every 30 mins for 7 hours."}},
  "data": [
    {"sequence": "LQEEDAGEYGCM (listed as Homo sapiens) [TLT1-LR12]", "values": [
      {"measurement": "animals in which norepinephrine was started by H12 to maintain MAP >85 mmHg", "setting": "[1]; mini-pig peritonitis", "value": "1/6"},
      {"measurement": "volume rescucitation", "setting": "[1]; mini-pig peritonitis, 5 mg/kg bolus then 1 mg/kg/h i.v.", "value": "6500 ± 800", "unit": "mL"},
      {"measurement": "progressive lactic acidosis", "setting": "[1]; p=0.0005", "value": "largely attenuated"},
      {"measurement": "cardiac failure (cardiac index, cardiac power index, SvO2, DO2)", "setting": "[1]; versus controls", "value": "significant beneficial effects in attenuating cardiac failure"},
      {"measurement": "norepinephrine infusion rate needed to maintain blood pressure", "setting": "[1]; versus controls", "value": "significantly lower"},
      {"measurement": "arterial pressure / hypotension after LPS challenge", "setting": "[2]; LPS 10 μg/kg", "value": "never went hypotensive"},
      {"measurement": "Heart rate after LPS injection", "setting": "[2]; LPS 10 μg/kg, 5 mg/kg then 1 mg/kg/h for 8 hours i.v.", "value": "no effects"},
      {"measurement": "body temperature increase after LPS, difference between placebo (LR12scr) and LR12-treated animals", "setting": "[2]; between H1 and H2", "value": "not significant"}
    ]}
  ]
}
